Experimental findings from article PMC8961561, “PEPscan: A Broad Spectrum Approach for the Characterization of Protein-Binder Interactions?” (Biomolecules, 2022) are described below.

Test [1] concerns the target T1, TIMP-1 (UniProt P01033 24-207).
T1 construct: TIMP-1, UniProt P01033, full size 207
Description: peptide or protein array; PEPscan: overlapping dodecapeptides (two amino acid shift) spanning the complete sequence of one partner on a cellulose membrane; saturated with 3% non-fat dry milk/3% BSA; incubated with the purified protein partner (4 mg/mL, 4 °C, overnight); antibody against that protein, HRP-conjugated secondary antibody, ECL. To be noted: both partners purified.

Test [2] concerns the target T2, SLAM-Associated Protein (SAP) (UniProt O60880 1-128).
T2 construct: SAP, UniProt O60880, full size 128
T2 sequence (looked up): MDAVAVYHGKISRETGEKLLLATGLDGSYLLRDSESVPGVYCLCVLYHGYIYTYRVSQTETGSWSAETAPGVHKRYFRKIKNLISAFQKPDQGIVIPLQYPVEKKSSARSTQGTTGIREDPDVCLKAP
The description is as above. To be noted: both partners purified.

T1 sequence (P01033 24-207): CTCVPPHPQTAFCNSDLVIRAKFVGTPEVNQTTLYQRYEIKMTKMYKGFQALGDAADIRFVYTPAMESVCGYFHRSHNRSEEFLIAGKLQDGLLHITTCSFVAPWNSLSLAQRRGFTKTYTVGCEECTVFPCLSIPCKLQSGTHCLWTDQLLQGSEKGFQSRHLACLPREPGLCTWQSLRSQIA

B1: MMP1 fragment FREYNLHRVAAHELGHSL (peptide)
peptide: FREYNLHRVAAHELGHSL
notes: stretch of MMP-1; union of positive overlapping dodecapeptide spots 4:11–14; also called MMP1 4:11–14; source: spot synthesis on cellulose membrane
As for B1, in test [1], the binding result is reported as “binds”.

B2: Fyn fragment ALYDYEARTEDDLSFH (peptide)
peptide: ALYDYEARTEDDLSFH
notes: stretch of Fyn; union of positive overlapping dodecapeptide spots 2:14–16; also called FSYN-SH3 2:14–16; source: spot synthesis on cellulose membrane
For the molecule B2, the binding result in test [2] is reported as “binds”.
